Results on one molecule are retold here after patent US20240034786A1 (WUXI BIOLOGICS IRELAND, published 2024).

The target in assay [1] is T1, Human P-cadherin on cells (human, UniProt P22223 108-829).
T1 construct: whole, on cells; Endogenous P-cadherin on tumour cell lines; also called hPro1
Description: FACS on DU-145 cells. How it is done: (§1) Binding of the test antibodies to P-cadherin expressed on cells was determined by flow cytometry analysis. […] 1×10⁵ cells/well (100 μL) were added to each well of a 96-well U-plate (Corning, #3799) and centrifuged at 1500 rpm (Eppendorf, #5810R) for 5 minutes before removing the supernatant. Antibodies serially diluted in 1% BSA/1×PBS (Ca+/Mg+) were added at 100 μL/well to the pelleted cells and incubated at 4° C. for 1 hour. Anon-related hIgG1 antibody was used as an isotype control. Cells were washed two times with 180 μL/well of 1% BSA/1×PBS (Ca+/Mg+) by centrifugation at 1500 rpm for 5 minutes at 4° C. Pelleted cells were resuspended in 100 μL/well Alexa647 conjugated Goat anti-human IgG Fc (Jackson, #109-605-098) 1:500 diluted in 1% BSA/1×PBS (Ca+/Mg+) for 30 minutes at 4° C. in the dark. Cells were then washed two times as described above. After the final wash, cells were resuspended in 100 μL 1% BSA/1×PBS (Ca+/Mg+) and fluorescence values were measured with a FACS Canto II cytometer (BD Biosciences). The amount of cell surface bound anti-P-cadherin antibody was assessed by measuring the mean fluorescence (MFI). The FACS raw data were analyzed by FlowJo software, wells containing no antibody or secondary antibody only were used to establish background fluorescence. Binding EC50 values were obtained by the four-parameter non-linear regression analysis using GraphPad Prism6 software.

Assay [2] concerns the target T1, Human P-cadherin on cells. Description: FACS on DU-145 cells. Here is the method: as §1
The source holds these as a separate data set.

The target in assay [3] is T1, Human P-cadherin on cells. Description: cell-based or functional assay.
Assay [4] addresses T1, Human P-cadherin on cells. Description: FACS on HCT-116 cells. How it is done: as §1
For assay [5], the target named is T1, Human P-cadherin on cells. Description: FACS on HCT-116 cells, antibody kept in human serum at 37 C, Day 14. Here is the method: (§2) The antibody stability in human serum was tested by FACS. Briefly, human serum was freshly isolated by centrifuging the fresh blood twice at 4000 rpm for 10 minutes. […] As a control, antibodies serum mix was frozen immediately without 37° C. incubation. For the FACS analysis, the samples from different time points were free-thawed simultaneously at 4° C. […] The cells were washed twice with 1% BSA/1×PBS (Ca+/Mg+). Alexa647 conjugated Goat anti-human IgG Fc (Jackson, #109-605-098) 1:500 diluted in 1% BSA/1×PBS (Ca+/Mg+) were added to the cells and incubated at 4° C. for 30 minutes. Cells were washed twice in the same buffer and the mean fluorescence (MFI) of stained cells was measured using a FACS Canto II cytometer (BD Biosciences) and analyzed by FlowJo. Wells containing no antibody or secondary antibody only were used to establish background fluorescence. Four-parameter non-linear regression analysis was used to obtain EC50 values for cell binding using GraphPad Prism6 software.

Assay [6] addresses T1, Human P-cadherin on cells. Description: FACS on HCT-116 cells, antibody kept in human serum at 37 C, Day 1. Here is the method:
as §2

Assay [7] has as its target T1, Human P-cadherin on cells. Description: cell-based or functional assay. The source holds these as a separate data set.
For assay [8], the target named is T1, Human P-cadherin on cells. Description: cell-based or functional assay. The source holds these as a separate data set.
Assay [9] deals with T1, Human P-cadherin on cells. Description: FACS on HCT-116 cells, antibody kept in human serum at 37 C, Day 7. How it is done:
as §2

The target in assay [10] is T1, Human P-cadherin on cells. Description: FACS on HCT-116 cells, antibody kept in human serum at 37 C, Day 0. How it is done: as §2
Assay [11] deals with T1, Human P-cadherin on cells. Description: FACS on HCT-116 cells. Here is the method:
as §1
Binding of the antibodies to human P-cadherin expressed on cells was determined by flow cytometry analysis.
The source holds these as a separate data set.

T1 sequence (P22223 108-829): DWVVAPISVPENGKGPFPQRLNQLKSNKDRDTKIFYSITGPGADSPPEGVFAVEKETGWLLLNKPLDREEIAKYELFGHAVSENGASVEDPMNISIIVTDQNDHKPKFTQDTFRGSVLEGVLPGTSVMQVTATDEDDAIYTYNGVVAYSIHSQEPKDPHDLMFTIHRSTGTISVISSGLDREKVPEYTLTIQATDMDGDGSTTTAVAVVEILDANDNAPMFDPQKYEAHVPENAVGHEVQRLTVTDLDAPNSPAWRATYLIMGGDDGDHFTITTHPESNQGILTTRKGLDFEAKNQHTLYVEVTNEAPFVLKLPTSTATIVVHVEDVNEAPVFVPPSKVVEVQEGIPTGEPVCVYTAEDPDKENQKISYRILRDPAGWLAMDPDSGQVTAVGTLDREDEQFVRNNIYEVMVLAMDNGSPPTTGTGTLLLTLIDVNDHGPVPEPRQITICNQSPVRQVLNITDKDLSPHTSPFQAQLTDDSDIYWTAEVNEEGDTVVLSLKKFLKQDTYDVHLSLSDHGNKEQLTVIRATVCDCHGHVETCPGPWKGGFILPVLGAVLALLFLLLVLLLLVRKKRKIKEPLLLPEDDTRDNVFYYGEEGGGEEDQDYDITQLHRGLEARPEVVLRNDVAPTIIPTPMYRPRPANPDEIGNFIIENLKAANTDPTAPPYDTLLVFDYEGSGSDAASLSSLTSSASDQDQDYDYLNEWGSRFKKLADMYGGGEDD

B1: W3195-1.53.1-p1-uIgG1L (antibody)
heavy: not shown
light: SYELTQPPSVSVSPGQTAQITCSGDKLGDKFASWYQQKSGQSPVVVIYQDNKRPSGFPERFSGSNSGNTATLTISGTQAMDEADYYCQAWDSSIVVFGGGTKLTVLGQPKAAPSVTLFPPSSEELQANKATLVCLISDFYPGAVTVAWKADSSPVKAGVETTTPSKQSNNKYAASSYLSLTPEQWKSHRSYSCQVTHEGSTVEKTVAPTECS
notes: also called W3195-p1 antibody
With B1, the half-maximal effective concentration (EC50) in [1] came out at 0.1 nM; in assay [2], 0.07 nM; in [4], 0.21 nM; in [5], 0.2 nM; in [6], 0.19 nM; in assay [9] it was 0.21 nM. For the same molecule, the EC50 in assay [10] worked out at 0.2 nM; in assay [11] it was 0.15 nM. Also, the “Max MFI” value in assay [1] worked out at 2290; in assay [2], 2100; in [11], 4080. Besides, the “ADCC reporter gene assay, EC50” value in assay [3] amounted to 0.052 nM. Further, the “ADCC reporter gene assay, Max Fold Change” value in assay [3] was found to be 145 fold. In assay [7], the “internalization, Fab-ZAP on HCC-1954, IC50” value came out at 0.069 nM. In addition, the “internalization, Fab-ZAP on HCC-1954, Max Inh %” value in [7] was found to be 81%. In addition, in assay [8], the “internalization, HCS assay on HCC-1954, EC50” value was found to be 0.029 nM.

The EC50 is the concentration that produces a half-maximal response. Read a low EC50 as a more potent agent.
